Entries after “also recorded” stand apart in the source; their conditions may differ. Where two headings read alike, the source gives them in different places. Where no end group is shown, it is not given here. The star is where a group is joined. RhodamineB = CCN(CC)c1ccc2c(-c3ccccc3C(=O)*)c3ccc(=[N+](CC)CC)cc-3oc2c1
Columns and labels:
Par-6 PDZ^156–255 = experiment: 1H-15N HSQC NMR titration of PDZ^156–255 with peptide; assay type: binding, D. melanogaster; settings: 25 °C, 0.1–0.25 mM 15N-labeled protein, 90% H2O/10% D2O, pH 5.5
Par-6 = settings: Cdc42-GTP:Par-6; cited from earlier work
Pals1 = Pals1 (UniProt Q8N3R9); settings: cited from earlier work
Sequence of Pals1 (Q8N3R9 whole entry): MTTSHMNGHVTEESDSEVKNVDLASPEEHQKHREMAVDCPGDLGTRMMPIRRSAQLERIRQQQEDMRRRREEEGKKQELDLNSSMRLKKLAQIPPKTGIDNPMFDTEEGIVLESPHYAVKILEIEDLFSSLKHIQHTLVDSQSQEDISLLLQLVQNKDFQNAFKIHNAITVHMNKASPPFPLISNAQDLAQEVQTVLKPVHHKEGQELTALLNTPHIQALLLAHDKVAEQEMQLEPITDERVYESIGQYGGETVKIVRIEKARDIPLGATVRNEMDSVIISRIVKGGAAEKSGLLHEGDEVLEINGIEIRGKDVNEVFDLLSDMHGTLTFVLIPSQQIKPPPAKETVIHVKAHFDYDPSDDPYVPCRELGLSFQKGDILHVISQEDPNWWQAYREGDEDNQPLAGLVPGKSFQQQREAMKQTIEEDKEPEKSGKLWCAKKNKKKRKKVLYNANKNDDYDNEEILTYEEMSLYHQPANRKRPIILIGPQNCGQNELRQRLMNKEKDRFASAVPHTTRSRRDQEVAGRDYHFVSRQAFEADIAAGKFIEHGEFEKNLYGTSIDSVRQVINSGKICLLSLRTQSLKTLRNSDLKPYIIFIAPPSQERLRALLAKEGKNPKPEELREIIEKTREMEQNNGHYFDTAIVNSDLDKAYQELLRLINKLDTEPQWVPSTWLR

Crumbs CTD = Crumbs CTD (UniProt P10040); settings: cited from earlier work
Sequence of Crumbs CTD (P10040 2110-2146): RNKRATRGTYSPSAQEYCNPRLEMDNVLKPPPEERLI

[1] = target: disulfide-stabilized Par-6 CRIB-PDZ (CRIB-PDZ^Q144C/L164C) (D. melanogaster); experiment: ITC
[2] = target: Cdc42:CRIB-PDZ^130–255 complex (Cdc42 loaded with GMPPNP) ( | D. melanogaster, UniProt P60953 1-191; O97111 130-255); experiment: fluorescence polarisation
[3] = target: Par-6 PDZ domain (residues 156–255) (D. melanogaster) (UniProt O97111); experiment: fluorescence polarisation
[4] = target: disulfide-stabilized Par-6 CRIB-PDZ (CRIB-PDZ^Q144C/L164C) (D. melanogaster); experiment: fluorescence polarisation
[5] = target: Par-6 CRIB-PDZ module (CRIB-PDZ^130–255) (D. melanogaster) (UniProt O97111); experiment: fluorescence polarisation
[6] = target: Par-6 CRIB-PDZ module (CRIB-PDZ^130–255) (D. melanogaster) (UniProt O97111); experiment: fluorescence polarisation; remark: listed apart in the source

Sequence of Par-6 CRIB-PDZ (Q9NPB6 126-253): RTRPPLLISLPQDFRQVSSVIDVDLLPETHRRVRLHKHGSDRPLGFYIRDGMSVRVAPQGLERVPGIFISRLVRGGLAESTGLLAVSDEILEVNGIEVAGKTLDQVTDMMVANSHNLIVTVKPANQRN
Sequence of Pals1 PDZ-SH3-GK (Q8N3R9 236-675): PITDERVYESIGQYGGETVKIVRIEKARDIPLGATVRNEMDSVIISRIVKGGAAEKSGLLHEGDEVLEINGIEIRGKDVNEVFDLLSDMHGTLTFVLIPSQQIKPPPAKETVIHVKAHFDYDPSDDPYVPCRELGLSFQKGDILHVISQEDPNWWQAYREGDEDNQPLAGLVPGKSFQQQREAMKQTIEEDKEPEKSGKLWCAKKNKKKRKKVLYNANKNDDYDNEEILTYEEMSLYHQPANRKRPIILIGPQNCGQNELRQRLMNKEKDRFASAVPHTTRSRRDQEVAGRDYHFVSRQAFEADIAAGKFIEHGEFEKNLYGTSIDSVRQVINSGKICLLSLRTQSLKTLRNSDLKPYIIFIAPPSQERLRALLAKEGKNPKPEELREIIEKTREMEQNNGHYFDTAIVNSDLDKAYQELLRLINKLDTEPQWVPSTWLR

Question: For LPPEERLI [LPPEERLI], which “HSQC titration behaviour / binding mode” value (Par-6 PDZ^156–255) is on record?
Answer: Significant shifts were observed for many amino acids in and near the PDZ ligand binding cleft; also recorded: consistent with binding at a second, low affinity site

Question: What does the source list for “Cdc42-GTP: monomeric GTPase Cdc42 bound to GTP; binds the CRIB module of Par-6”?
Answer: Kd (Par-6): ~0.05 µM; binding energy (Par-6): ~ 10 kcal/mol

Question: Which Kd (Pals1) does the source give for Par-6 CRIB-PDZ (from UniProt Q9NPB6) here?
Answer: 6 µM

Question: Which Kd (Crumbs CTD) does the source give for Pals1 PDZ-SH3-GK (from UniProt Q8N3R9) here?
Answer: 0.1 µM

Question: Which results are given for VKESLV peptide?
Answer: Kd [1]: 17 µM; dH [1]: -3.4 kcal/mol; stoichiometry N [1]: 1.09

Question: With RhodamineB-VKESLV [N-terminally Rhodamine B-labeled VKESLV peptide] as the molecule, how does the Kd [2] read?
Answer: 6 µM

Question: And the Kd [3]?
Answer: 72 µM

Question: And the Kd [4]?
Answer: 13 µM

Question: What about the Kd [5] of the same molecule?
Answer: 54 µM

Question: What does the source list for RhodamineB-GEERLI [N-terminally Rhodamine B-labeled GEERLI peptide]?
Answer: Kd [2]: 1.2 µM; Kd [6]: 7.2 µM; Kd [3]: 12 µM; Kd [4]: 2.5 µM; Kd [5]: 7.3 µM

Question: With GEERLI [modified Crumbs peptide lacking the proline residues (GEERLI)] as the molecule, how does the Kd [1] read?
Answer: 1.9 µM

Question: And the dH [1]?
Answer: -7.21 kcal/mol

Question: What about the stoichiometry N [1] of the same molecule?
Answer: 1.05

Source: PMC5433836 (Biochemistry, 2016)
